A short description of this data set: soluble fraction after stress (log2 fold change); higher = more stays soluble; pooled small domains, quantitative proteomics. Conditions: stress: pH 4. An outline of the steps: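 High-throughput quantitative proteomics was run on pooled custom libraries of small protein domains following pH 4 stress. Fold changes are on a log2 scale; higher values mean more of a domain remained soluble. The fold change in soluble amount is taken as a measure of aggregation propensity.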
With “HMVTTDPIADMLTRIRNASSQKHKSVDVPASKEKLAIAQILFEEGYIKSFEEIKEENNQGVIRITLKYTEK”, the “soluble fraction (log2)” value is -0.0598. For “HMVTVPNYSDPRQYVEWGNANGITINRAVGDTIASMSGRVQDVRDSNGNSVIGKKVKKGSTVTVYIYFLK”, the “soluble fraction (log2)” value is -0.0785.

On to “HMVTVSAVNITPKGHTTVGFTDRSVNPPSNYYLRVGESADGWTVKDADFDDEIATLEKDGVAITLKL”, for which the “soluble fraction (log2)” value was -0.548.

As for “HMVTYELTEDEKFIVSLLEKENSQPIGALKDKSALSGKKWDAAMKGLAKHGLTKVVVDGDNKLVVL”, the “soluble fraction (log2)” value is -0.184. Consider “HMVVEDDTVLQAVKQAIEENPEAVSDYFEGKSKALNFLVGQVMRITRGKADPAKTNQMVVEELKNR”, for which the “soluble fraction (log2)” value worked out at 0.112.

For the sequence “HMVVMKGKVKWFNKNKGYGFIITDDNKEYFVHWKSIVTNSPRELKVLEQDELVTFDLMETDKGIQAINII”, the “soluble fraction (log2)” value was -1.22.

Take “HMVVPELNLAQQDVLRALRQRGRATADHLSVDTHRPVSEVMGILLGLEIAEVLYRVEGGWFVPKTAR”: the “soluble fraction (log2)” value was -1.04. Take “HMVVSDKIAFSSFLKSVEDGRVVEVEITGNDIRGILSDGTVFNTYAPNDPNLVEKLTSKGVNITALPKE”: the “soluble fraction (log2)” value was found to be 0.0738. Take “HMVVYQRVHDEILQALKDNVYPVGTLLPPEPELERIYSVSRTTVRRAIAKLSEEGYVQVRQGYGTMVLKN”: the “soluble fraction (log2)” value turned out to be 0.22. As to “HMWGAYHDGQVVKFPKKVTVYVIDGQYKRPLANEFVLKFLNYKTSDIIIDKDGNLNNYKNGAVVEH”, the “soluble fraction (log2)” value is -0.332. On to “HMWMQKILGNYIAARRKELGMTQANLAEKIHVTDKAVSRWERGVGLPDIENLEALAKALEVSLVSLMQGKT”, for which the “soluble fraction (log2)” value is 0.22. Consider “HMWNGIVDAGKARQHLMNLSQLGVGRRAVAAASDVAETVLMDIRSGTKTRIRARTERQILAVTPEMA”, for which the “soluble fraction (log2)” value turned out to be 0.22. For “HMWNTADDIKEAIWKLIQSEDPKKPYSDLKISQLLLEKEMKISRRTVAKYRKEMGILGTYSRK”, the “soluble fraction (log2)” value was 0.23. Turning to “HMWQPIKLDRGDWQNSLQVGDRVFVRGIPRPVEILSAVDEENNIEVLMGTMRAKIPVYQLDKPAENFIDTT”, the “soluble fraction (log2)” value is -0.711. Take “HMWQVVEVDYGTFMSMTEDGQVGRVEIQEQENLILFTDQEETTVYKTAMVDDPDLTARLHDAGIPFYGQE”: the “soluble fraction (log2)” value is -2.29.

On to “HMWSGEPFLDELRHADTLLETDPEAALAEYRALADKGSAAAMMALGNAYASGSHVARDEGEAEHWYRRAA”, for which the “soluble fraction (log2)” value was -0.752. Take “HMWSLLVILQLREGGQRFSQLQRAIPDISQRMLTQTLRKLERDGLVSRKVTPSTPPRVDYAITELGH”: the “soluble fraction (log2)” value was -0.556. Consider “HMWSQEPEYRPLYNSMDGFDAGQVVEMLQQSRIDYKVEPNSGALLVRSEDLADARLRLASAGISP”, for which the “soluble fraction (log2)” value is -0.959.

“HMYAEVTITIEKGMTSDSVSKLLYKAGIVDDAKEFNNYIIKAGKSTKILIGEFTIQKGASYDDIIKIIA”: the “soluble fraction (log2)” value was -0.133.

“HMYAGTVTQVKNNKVMLEFDGETVNVGDQFFILNSDGKKVAIVEITAAKNKKALANVLKGKAVVDGTTQAK”: the “soluble fraction (log2)” value was -0.404.

Consider “HMYAVDTIHKGTITEMTDKGAVVSLGDNIDGFAPARQLVKEDGTTLKLGDTADFKVIEFSKATKRITLSH”, for which the “soluble fraction (log2)” value was found to be 0.094. To “HMYAVQKGDTLKKIADQFGISVDTIKWANDMKGDALSIDQELKIP” belongs 0.0154. For the sequence “HMYDAEAINKFFDIENWDFGETFYFQELSAYIMNQLSPKLVTILIVPRQTTQAFGSLFEIKSEPDEIFAS”, the “soluble fraction (log2)” value was -0.0578. As for “HMYDDEELDVLAHRPIESYTDAELAMLREVAETLLETDYEGWLKSLSMRGILLPPEILQLVT”, the “soluble fraction (log2)” value was -1.29.

“HMYDDLEPFDANGRLRWSDKELILAFGRHRGVTLQTLELNDPGYLRWLLSGNGPLEQQDRKRLEDILES”: the “soluble fraction (log2)” value is -1.36.

“HMYDEKTLRKAVLDYVRDNDDGRLDLMKIDSYLTSRYGNIDYAALGYNRLSMFISSFPELRRNSNYVTLRK”: the “soluble fraction (log2)” value was -0.158. Consider “HMYEDNERNLYSVVINFLNEHKIKISREAINLVINRSSGDKHNLKQELNKILNYSFSNKNITYETIEKLSN”, for which the “soluble fraction (log2)” value was determined as 0.0456. On to “HMYEDNERSLVPIVQNFLKEKKILLSNQSINLIVQRSGGDRINLYNELQKIESFSKNQKKIDIGDIIKLTN”, for which the “soluble fraction (log2)” value is 0.169. For the sequence “HMYEDSNQSLNFFAIKFIKEKNIKISQETTNLIVERARGDRGNLINELQKLEALSLTRKKITQEDVFNLTN”, the “soluble fraction (log2)” value was 0.22. Take “HMYEGLILINKYDSLVSAKLETNKIKSLGLFFEDMEEKIAVFSGPFKNNDINLKLDFLIRNGYLDAKIY”: the “soluble fraction (log2)” value is -1.53. To “HMYEIEDIKEKLLDLLANSKTGFSGLEISNRLGINRITVSKYLNIFSAEGLIKQKNIGNVIIWFVEDGIE” belongs -0.791.

On to “HMYEVDGLGIRIAQLRKKQDLTQEAFARTLGVSPQAVSKWETGIGYPDITLLPQIAKELGVSIDQLFGRN”, for which the “soluble fraction (log2)” value came out at 0.0751.

As for “HMYFGDADGNKKVDAADALYLKRHLADWEDYRELPQKTNVSWMDEASPANLMILERHIAGWKDYEMLPYT”, the “soluble fraction (log2)” value was -0.19. Regarding “HMYFMDEETWESKKTLLNDWYEANPEYADRRAISDGLFKIGDLQPDFRRRHWGSIGVIFADIPNSPMG”, the “soluble fraction (log2)” value was -1.37. In the case of “HMYGHKLDSYESYVVSELRRWPFLSAPQIHDRLKEHFSDLPLVTPKTVFNFVNRLRLTHSLPKE”, the “soluble fraction (log2)” value is -0.215. On to “HMYGLSFLIGFTVVDRTYGDIGKVTAIDDSTVNTLMAVGDRLIPAQEAFITKIDNTKKIIYTQLPEGLL”, for which the “soluble fraction (log2)” value is -0.512. The same measure for “HMYGTQTVNRGAVQPGMLVKHKDSTWTASANARGRLYLHRGVEMTYTRDLLVEVYLNGLGNGL”: -0.342. For “HMYHADLIGLRVETAAGEKLGTVKAVHNFGAGDVIEITGAEDKDGLMVPFTAEVVPEVDIENGRIVVS”, the “soluble fraction (log2)” value was -0.868. Turning to “HMYHKKEKAQAANIEERIMILLSDGKHHHITEIKAIYVDEVITLNILEEMLAEEKVIIEGDMIMLVE”, the “soluble fraction (log2)” value is -1.47. Turning to “HMYKLTTQRRAILDVIIENHDKHLNPEEIYDIVKEKYPEIGIATVYRTLQLLEKLNIIYRLNFDDGYNRYE”, the “soluble fraction (log2)” value was -1.12. For “HMYKLTYVVDGEVYLEETVSYGSKIAAAPAPEKEGYTFSGWEGLPEVMPAKDVTVSGSFTVN”, the “soluble fraction (log2)” value was -0.0428.

“HMYKMKDRIKKIMEMQRTTQQDFADQLKIAPATLSSIFTGRTRPTLAIVDAIKSRFPQISTDWLMFGKGDM”: the “soluble fraction (log2)” value turned out to be 0.22. Take “HMYKNAFITYDNNLYYLGSDSKMAIGWQSIGGNTYYFRNWGGMITGKQVIDGKTYVFDEDGKLVQSPD”: the “soluble fraction (log2)” value was -0.807.

Take “HMYLNYQTIGKRIRLLRKQQHLTQMTLAEMVDKSPTYISLVENGQKGPSLETLIDVANALKVTMDVLLAEY”: the “soluble fraction (log2)” value is -1.58.

“HMYLPPYMEVRAVMILDGKPMALMYIEGEGDGLIVSPGYKFDNGKGKVVSITPTKVVVLWAGTKMELG”: the “soluble fraction (log2)” value was -1.17.

“HMYLYHDLSDEAKAMGDEYVSVEHLVLALIRYPNNAVKELFREFGITRERFLQVLSTIRGNQRVTSDNPEA”: the “soluble fraction (log2)” value was -0.194. As to “HMYMFSGQRLKSLRKEKKMSQEKLGSLLNISKVAVSNWENAKSFPTMDNLNELAKVLEVEPHYF”, the “soluble fraction (log2)” value is -0.41. Turning to “HMYMKLSVKDAALFLSVSPETVYRWVKQEEIPYHTVNDQLRFNRAELLEWATARSLEVSPDLFVP”, the “soluble fraction (log2)” value was -1.53. Take “HMYMWQVEDLIRANGLDIERIKDSIIRPYELDEERKRELTQWYEDLIDMMRREGVAQSGHLQIN”: the “soluble fraction (log2)” value is -2.24. In the case of “HMYNMEELAGHTEKVYNSLPEELKLVIKLREIENMSYDEISLKTGMPIGTVRSRLHRAREILVDSLKDY”, the “soluble fraction (log2)” value is -0.491. For “HMYQNRLFYTLKTGETVADLSKSQDINLSTIWSLNKHLYSSESEMMKAAPGQQIILPLKKLP”, the “soluble fraction (log2)” value turned out to be 0.135. Turning to “HMYQPLRDVIFETLRKAIVSGDIKPGERLMEVSLANQMGVSRTPVREAIRRLEAEGLVTMTPRKGTHVAE”, the “soluble fraction (log2)” value is -0.215. The same measure for “HMYQRLPFSFANRYKMVLESQHPERAPILYYVEPLKSAAIIEVSRVVKNGFTPQAITLDEFDKKLTDAYQR”: -0.0881; for “HMYRLSPSWRIVERDDGFEIYGGDDARFQLDPSPLVSRLAAGDAVTRDGLDPTGAIEFEQLLSAGMIRPEI”: -0.829. As for “HMYRYTTFKVKEADTLLPFIQKSLNGISHNRAKAILTGGGVLVDKKITRAYDFALRPGMTVEISKSKP”, the “soluble fraction (log2)” value is no less than 0.43. As to “HMYRYYSTLRPITPGAYPKPADNPAMLIHNFDNREYVGKIGREAWGYVEYNNPLTKEQIEAFDFVAE”, the “soluble fraction (log2)” value is -0.0236.

Turning to “HMYSDIERAMTNAPEQFANKQAVLDFLNKNRIKKSEVDDYRIASLLKLYDDASPISKTEIISQVRT”, the “soluble fraction (log2)” value is -0.0708. Take “HMYSDQRMEIFLEHLPDFIEQLSHKHVTRQMVWEDYRMIYPDGYGKSQFFFHLAQNLKAQKP”: the “soluble fraction (log2)” value was -0.489. In the case of “HMYSYSFTSSEGSTFEGQLIRVEESQVTILRYADQKEFSIPKSRFIEADQVYFERWAIENPQL”, the “soluble fraction (log2)” value is -2.88.

“HMYSYSGSVSNTHDVPVSVVLKDAEGVAIASWDLQAKQSLNISAKDIATSSGTIEITGDGVSETKTVTFTK”: the “soluble fraction (log2)” value is -0.229.

As for “HMYTVKELSRLTGLTPRTLRYYDAIGLLSPARNRDNDYRLYGGAEVDRLQEILLYREMGLPLEEIGRILD”, the “soluble fraction (log2)” value is -0.491. The same measure for “HMYTVQPHESLWSIAASQLGDGHRFTEIVDLNQELLGGKANFIKPGWVLQIP”: -0.911; for “HMYTVVVGDSPSLIADKTGVPLKELTAMNPNLSDNFLPGKQLL”: -0.076; for “HMYVEVPNFIGVPLVKVQSELASLGLVFNKSVVYQTSPYLKGNILDQRPLPGEVVPLNTEMSFTVSSGPA”: -0.686.

“HMYVKIAADAAMPYTIKRVVTDYSSAALDAAYDGSLPKWLTISSSTKDAGSGLYRHEIIYTVTAHPE”: the “soluble fraction (log2)” value is -0.942. To “HMYVYEPGEFAVRGSILDVYSYASEFPYRIDFFGDDVESIRTFEVQTQLSKEAKDRVSIVPDTEQ” belongs -0.585; to “HMYYNDEELDGYRGTPSDAYSDNAVEEFREVLYTLREDEVSGWVRSLQLRGIFLPDAIKDETFLI”, -1.84.

As to “HMYYTAPDGRKREILDAALRLIAAGGPDSLTYRRVADEAGVPLGSLTYYFEAREDLIREAFRLYIAEASR”, the “soluble fraction (log2)” value was -1.6.

These data come from the domain aggregation screens of Martell et al. (2025).
